From publication PMC10783091, “Higher affinities of fibers with cell receptors increase the infection capacity and virulence of human adenovirus type 7 and type 55 compared to type 3” (Microbiology Spectrum, 2023)

Tests used:
[1] = target: Recombinant fiber knob of HAdV-7 (human adenovirus type 7) (UniProt P15141); assay: SDS-PAGE of unboiled (native) against boiled samples; purified knobs in loading buffer kept on ice (native) or heated at 98°C for 5 min (boiled); 12% SDS-PAGE
[2] = target: recombinant human desmoglein 2 (DSG2) (human) (UniProt Q14126); assay: SPR; DSG2 amine-coupled on a CM5 chip (3,500-3,700 RU), knobs as analytes; 25°C; HBS-EP (10 mM HEPES, 150 mM NaCl, 3 mM EDTA, 0.05% Tween 20, pH 7.4); association 180 s, dissociation 540 s, 30 µL/min; Biacore 8K
[3] = target: Recombinant fiber knob of HAdV-55 (human adenovirus type 55); assay: SDS-PAGE of unboiled (native) against boiled samples; purified knobs in loading buffer kept on ice (native) or heated at 98°C for 5 min (boiled); 12% SDS-PAGE
[4] = target: T1, recombinant human desmoglein 2 (DSG2) (human, UniProt Q14126 50-609); assay: SPR; DSG2 amine-coupled on a CM5 chip (3,500-3,700 RU), knobs as analytes; 25°C; HBS-EP (10 mM HEPES, 150 mM NaCl, 3 mM EDTA, 0.05% Tween 20, pH 7.4); association 180 s, dissociation 540 s, 30 µL/min; Biacore 8K; settings: both partners purified
T1 construct: desmoglein 2, human, recombinant; No catalogue number, limits or tags are printed for the bought protein; The source is named for the SPR; the ELISA says only 'human DSG2'; also called human DSG2; receptor DSG2; source: bought: Creative Biomart
T1 sequence: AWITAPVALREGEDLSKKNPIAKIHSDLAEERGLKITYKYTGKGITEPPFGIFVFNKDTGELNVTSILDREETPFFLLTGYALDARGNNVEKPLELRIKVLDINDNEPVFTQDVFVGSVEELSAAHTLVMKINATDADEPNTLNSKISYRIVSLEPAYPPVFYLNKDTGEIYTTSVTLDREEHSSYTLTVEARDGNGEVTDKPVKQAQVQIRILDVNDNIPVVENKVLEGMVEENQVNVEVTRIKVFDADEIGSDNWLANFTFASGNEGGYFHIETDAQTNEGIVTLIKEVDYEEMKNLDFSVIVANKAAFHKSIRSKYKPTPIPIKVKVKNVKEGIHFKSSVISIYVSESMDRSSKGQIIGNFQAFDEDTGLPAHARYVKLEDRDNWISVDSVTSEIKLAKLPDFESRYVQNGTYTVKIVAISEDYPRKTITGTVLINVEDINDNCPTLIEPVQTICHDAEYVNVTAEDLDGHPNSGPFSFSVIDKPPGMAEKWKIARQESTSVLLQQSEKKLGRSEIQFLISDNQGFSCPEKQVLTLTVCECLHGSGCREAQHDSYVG

[5] = target: the molecule itself; assay: SDS-PAGE of unboiled (native) against boiled samples; purified knobs in loading buffer kept on ice (native) or heated at 98°C for 5 min (boiled); 12% SDS-PAGE

Recombinant fiber knob of HAdV-7 (from UniProt P15141 1-343) (domain or fragment)
stoichiometry N [1]: 3 | Kd [2]: 2.21 nM

Recombinant fiber knob of HAdV-55 (domain or fragment)
stoichiometry N [3]: 3 | Kd [2]: 1.25 nM

B1: Recombinant fiber knob of HAdV-3 (domain or fragment)
chain: KLGNGLTFDSSNSIALKNNTLWTGPKPEANCIIEYGKQNPDSKLTLILVKNGGIVNGYVTLMGASDYVNTLFKNKNVSINVELYFDATGHILPDSSSLKTDLELKYKQTADFSARGFMPSTTAYPFVLPNAGTHNENYIFGQCYYKASDGALFPLEVTVMLNKRLPDSRTSYVMTFLWSLNAGLAPETTQATLITSPFTFSYIREDD
notes: fiber protein of human adenovirus type 3, fiber knob with the last shaft repeat; also called Ad3K; Ad3k; not shown: His tag, N-terminal, kept
Kd [4]: 6.7 nM

B2: Recombinant fiber knob of HAdV-5 (domain or fragment)
chain: GAITVGNKNNDKLTLWTTPAPSPNCRLNAEKDAKLTLVLTKCGSQILATVSVLAVKGSLAPISGTVQSAHLIIRFDENGVLLNNSFLDPEYWNFRNGDLTEGTAYTNAVGFMPNLSAYPKSHGKTAKSNIVSQVYLNGDKTKPVTLTITLNGTQETGDTTPSAYSMSFSWDWSGHNYINEIFATSSYTFSYIAQE
notes: fiber protein of human adenovirus type 5, fiber knob with the last shaft repeat; Negative control knob; also called Ad5K; Ad5k; not shown: His tag, N-terminal, kept
stoichiometry N [5]: 3
